Paper PMC3045595 (Nucleic Acids Research, 2010)

Molecular target: the molecule itself
Test: SEC

B1: human TYW5 (tRNA yW-synthesizing enzyme 5), wild type (enzyme)
chain: MAGQHLPVPRLEGVSREQFMQHLYPQRKPLVLEGIDLGPCTSKWTVDYLSQVGGKKEVKIHVAAVAQMDFISKNFVYRTLPFDQLVQRAAEEKHKEFFVSEDEKYYLRSLGEDPRKDVADIRKQFPLLKGDIKFPEFFKEEQFFSSVFRISSPGLQLWTHYDVMDNLLIQVTGKKRVVLFSPRDAQYLYLKGTKSEVLNIDNPDLAKYPLFSKARRYECSLEAGDVLFIPALWFHNVISEEFGVGVNIFWKHLPSECYDKTDTYGNKDPTAASRAAQILDRALKTLAELPEEYRDFYARRMVLHIQDKAYSKNSE
With B1 the “stoichiometry N” value was 2.
